# According to patent publication US20210292396A1:
# Tests used:
# Experiment in all cases: cell-based or functional assay
# [1] = molecular target: Env of HIV isolate 16936-2.21 (clade C) (HIV)
# [2] = molecular target: Env of HIV isolate TV1.29 (clade C) (HIV)
# [3] = molecular target: HIV Env of isolate 25925-2.22 (HIV)
# [4] = molecular target: Env of HIV isolate QH0692.42 (clade B) (HIV)
# [5] = molecular target: Env of HIV isolate CNE57 (clade B) (HIV)
# [6] = molecular target: Env of HIV isolate CNE3 (clade AE) (HIV)
# [7] = molecular target: Env of HIV isolate BG1168.01 (clade B) (HIV)
# [8] = molecular target: Env of HIV isolate 57128.vrc15 (clade D) (HIV)
# [9] = molecular target: HIV Env of isolate DU172.17 (HIV)
# [10] = molecular target: Env of HIV isolate X1632.S2.B10 (clade G) (HIV)
# [11] = molecular target: Env of HIV isolate T250-4 (clade AG) (HIV)
# [12] = molecular target: Env of HIV isolate 3016.v5.c45 (clade D) (HIV)
# [13] = molecular target: Env of HIV isolate YU2.DG (clade B) (HIV)
# [14] = molecular target: Env of HIV isolate R1166.C1 (clade AE) (HIV)
# [15] = molecular target: Env of HIV isolate CNE30 (clade C in Table 7) (HIV)
# [16] = molecular target: Env of HIV isolate X1254.c3 (clade G) (HIV)
# [17] = molecular target: Env of HIV isolate ZM249.1 (clade C) (HIV)
# [18] = molecular target: Env of HIV isolate CNE4 (clade B) (HIV)
# [19] = molecular target: HIV Env of isolate 3873.v1.c24 (HIV)
# [20] = molecular target: HIV Env of isolate 16936-2.21 (HIV)
# [21] = molecular target: HIV Env of isolate Ce1176.A3 (HIV)
# [22] = molecular target: Env of HIV isolate BJOX002000.03.2 (clade BC) (HIV)
# [23] = molecular target: Env of HIV isolate BL01.DG (clade B) (HIV)
# [24] = molecular target: HIV Env of isolate 6838.v1.c35 (HIV)
# [25] = molecular target: HIV Env of isolate CNE21 (HIV)
# [26] = molecular target: HIV Env of isolate 247-23 (HIV)
# [27] = molecular target: HIV Env of isolate CNE20 (HIV)
# [28] = molecular target: Env of HIV isolate 3168.v4.c10 (clade C) (HIV)
# [29] = molecular target: Env of HIV isolate 16055-2.3 (clade C) (HIV)
# [30] = molecular target: HIV Env of isolate CAP244.D3 (HIV)
# [31] = molecular target: Env of HIV isolate AC10.29 (clade B) (HIV)
# [32] = molecular target: Env of HIV isolate TH966.8 (clade AE) (HIV)
# [33] = molecular target: Env of HIV isolate Q842.d12 (clade A) (HIV)
# [34] = molecular target: Env of HIV isolate 398-F1.F6.20 (clade A) (HIV)
# [35] = molecular target: HIV Env of isolate TZA125.17 (HIV)
# [36] = molecular target: HIV Env of isolate CH117.4 (HIV)
# [37] = molecular target: Env of HIV isolate RW020.2 (clade A) (HIV)
# [38] = molecular target: Env of HIV isolate 271-11 (clade AG) (HIV)
# [39] = molecular target: Env of HIV isolate DJ263.8 (clade AG) (HIV)
# [40] = molecular target: Env of HIV isolate 96ZM651.02 (clade C) (HIV)
# [41] = molecular target: Env of HIV isolate REJO.67 (clade B) (HIV)
# [42] = molecular target: Env of HIV isolate UG024.2 (clade D) (HIV)
# [43] = molecular target: Env of HIV isolate CNE53 (clade C in Table 7) (HIV)
# [44] = molecular target: Env of HIV isolate R2184.c4 (clade AE) (HIV)
# [45] = molecular target: HIV Env of isolate 426c (HIV)
# [46] = molecular target: Env of HIV isolate CAP244.D3 (clade C) (HIV)
# [47] = molecular target: HIV Env of isolate P1981.C5.3 (HIV)
# [48] = molecular target: Env of HIV isolate 235-47 (clade AG) (HIV)
# [49] = molecular target: Env of HIV isolate 246-F3.C10.2 (clade AC) (HIV)
# [50] = molecular target: Env of HIV isolate 0013095-2.11 (clade C) (HIV)
binder,measurement,setting,value
"ePGT121.18 (ePGT121.18.H1 VH and ePGT121.17.L1 VL) (antibody, V domains shown) VH: QMQLQESGPGLVKPGETLSLTCSVSGASISSSYWSWLRETPGKGLEWIGYTHHSGDTNYAPSLKSRVHLGLHPSKNQVSLSLTSVTAADTAVYYCARTLHGRRIYGVVAFNEYYTYFYWPTWGKGTQVTVSS VL: SDISVAPGETVRITCGGESIGSRAVQWYQHRPGQAPRLIIYNNQDRPPGIPERFSGSPDIDFGTTATLTISNVEAGDEATYYCHIWDSRRPTNWELGPGTTLTVL","IC50, pseudovirus neutralization",[1],0.002 µg/mL
same,"IC50, pseudovirus neutralization",[2],0.002 µg/mL
same,"IC80, pseudovirus neutralization (M1)",[3],0.008 µg/mL
same,"IC80, pseudovirus neutralization (M2)",[3],0.01 µg/mL
same,"IC50, pseudovirus neutralization",[4],0.006 µg/mL
same,"IC50, pseudovirus neutralization",[5],0.002 µg/mL
same,"IC50, pseudovirus neutralization",[6],> 50 µg/mL
same,"IC50, pseudovirus neutralization",[7],> 50 µg/mL
same,"IC50, pseudovirus neutralization",[8],0.004 µg/mL
same,"IC80, pseudovirus neutralization (M1)",[9],0.005 µg/mL
same,"IC80, pseudovirus neutralization (M2)",[9],0.005 µg/mL
same,"IC50, pseudovirus neutralization",[10],> 50 µg/mL
same,"IC50, pseudovirus neutralization",[11],0.0008 µg/mL
same,"IC50, pseudovirus neutralization",[12],> 50 µg/mL
same,"IC50, pseudovirus neutralization",[13],0.003 µg/mL
same,"IC50, pseudovirus neutralization",[14],> 50 µg/mL
same,"IC50, pseudovirus neutralization",[15],0.005 µg/mL
same,"IC50, pseudovirus neutralization",[16],0.002 µg/mL
same,"IC50, pseudovirus neutralization",[17],0.134 µg/mL
same,"IC50, pseudovirus neutralization",[18],0.002 µg/mL
same,"IC80, pseudovirus neutralization (M1)",[19],0.006 µg/mL
same,"IC80, pseudovirus neutralization (M2)",[19],0.011 µg/mL
same,"IC80, pseudovirus neutralization (M1)",[20],0.003 µg/mL
same,"IC80, pseudovirus neutralization (M2)",[20],0.005 µg/mL
same,"IC80, pseudovirus neutralization (M1)",[21],0.006 µg/mL
same,"IC80, pseudovirus neutralization (M2)",[21],0.006 µg/mL
same,"IC50, pseudovirus neutralization",[22],0.002 µg/mL
same,"IC50, pseudovirus neutralization",[23],6.91 µg/mL
same,"IC80, pseudovirus neutralization (M1)",[24],2.59 µg/mL
same,"IC80, pseudovirus neutralization (M2)",[24],13.4 µg/mL
same,"IC80, pseudovirus neutralization (M1)",[25],0.002 µg/mL
same,"IC80, pseudovirus neutralization (M2)",[25],0.002 µg/mL
same,"IC80, pseudovirus neutralization (M1)",[26],> 50 µg/mL
same,"IC80, pseudovirus neutralization (M2)",[26],> 50 µg/mL
same,"IC80, pseudovirus neutralization (M1)",[27],0.003 µg/mL
same,"IC80, pseudovirus neutralization (M2)",[27],0.004 µg/mL
same,"IC50, pseudovirus neutralization",[28],0.012 µg/mL
same,"IC50, pseudovirus neutralization",[29],0.011 µg/mL
same,"IC80, pseudovirus neutralization (M1)",[30],> 50 µg/mL
same,"IC80, pseudovirus neutralization (M2)",[30],> 50 µg/mL
same,"IC50, pseudovirus neutralization",[31],0.001 µg/mL
same,"IC50, pseudovirus neutralization",[32],> 50 µg/mL
same,"IC50, pseudovirus neutralization",[33],0.002 µg/mL
same,"IC50, pseudovirus neutralization",[34],0.003 µg/mL
same,"IC80, pseudovirus neutralization (M1)",[35],0.137 µg/mL
same,"IC80, pseudovirus neutralization (M2)",[35],0.186 µg/mL
same,"IC80, pseudovirus neutralization (M1)",[36],> 50 µg/mL
same,"IC80, pseudovirus neutralization (M2)",[36],> 50 µg/mL
same,"IC50, pseudovirus neutralization",[37],0.002 µg/mL
same,"IC50, pseudovirus neutralization",[38],> 50 µg/mL
same,"IC50, pseudovirus neutralization",[39],0.002 µg/mL
same,"IC50, pseudovirus neutralization",[40],0.0007 µg/mL
same,"IC50, pseudovirus neutralization",[41],0.731 µg/mL
same,"IC50, pseudovirus neutralization",[42],2.36 µg/mL
same,"IC50, pseudovirus neutralization",[43],0.003 µg/mL
same,"IC50, pseudovirus neutralization",[44],> 50 µg/mL
same,"IC80, pseudovirus neutralization (M1)",[45],0.302 µg/mL
same,"IC80, pseudovirus neutralization (M2)",[45],0.337 µg/mL
same,"IC50, pseudovirus neutralization",[46],21.2 µg/mL
same,"IC80, pseudovirus neutralization (M1)",[47],0.003 µg/mL
same,"IC80, pseudovirus neutralization (M2)",[47],0.003 µg/mL
same,"IC50, pseudovirus neutralization",[48],0.006 µg/mL
same,"IC50, pseudovirus neutralization",[49],4.8 µg/mL
same,"IC50, pseudovirus neutralization",[50],0.537 µg/mL
"ePGT121.18.17 (ePGT121.18.H17 VH and ePGT121.17.L1 VL) (antibody, V domains shown) VH: QMQLQESGPGLVKPGETLSLTCSVSGASISSSYWSWLRETPGKGLEWIGYTHHSGDTNYAPSLKSRVTIGLDPSKNQVSLSLTSVTAADTAVYYCARTLHGRRIYGVVAFNEYYTYFYWPTWGKGTQVTVSS VL: SDISVAPGETVRITCGGESIGSRAVQWYQHRPGQAPRLIIYNNQDRPPGIPERFSGSPDIDFGTTATLTISNVEAGDEATYYCHIWDSRRPTNWELGPGTTLTVL","IC50, pseudovirus neutralization",[1],0.004 µg/mL
same,"IC50, pseudovirus neutralization",[2],0.011 µg/mL
same,"IC80, pseudovirus neutralization",[3],0.021 µg/mL
same,"IC50, pseudovirus neutralization",[4],0.035 µg/mL
same,"IC50, pseudovirus neutralization",[5],0.006 µg/mL
same,"IC50, pseudovirus neutralization",[6],> 50 µg/mL
same,"IC50, pseudovirus neutralization",[7],> 50 µg/mL
same,"IC50, pseudovirus neutralization",[8],0.012 µg/mL
same,"IC80, pseudovirus neutralization",[9],0.018 µg/mL
same,"IC50, pseudovirus neutralization",[10],> 50 µg/mL
same,"IC50, pseudovirus neutralization",[11],0.002 µg/mL
same,"IC50, pseudovirus neutralization",[12],> 50 µg/mL
same,"IC50, pseudovirus neutralization",[13],0.011 µg/mL
same,"IC50, pseudovirus neutralization",[14],> 50 µg/mL
same,"IC50, pseudovirus neutralization",[15],0.018 µg/mL
same,"IC50, pseudovirus neutralization",[16],0.006 µg/mL
same,"IC50, pseudovirus neutralization",[17],0.332 µg/mL
same,"IC50, pseudovirus neutralization",[18],0.008 µg/mL
same,"IC80, pseudovirus neutralization",[19],0.02 µg/mL
same,"IC80, pseudovirus neutralization",[20],0.011 µg/mL
same,"IC80, pseudovirus neutralization",[21],0.017 µg/mL
same,"IC50, pseudovirus neutralization",[22],0.004 µg/mL
same,"IC50, pseudovirus neutralization",[23],1.51 µg/mL
same,"IC80, pseudovirus neutralization",[24],4.34 µg/mL
same,"IC80, pseudovirus neutralization",[25],0.005 µg/mL
same,"IC80, pseudovirus neutralization",[26],> 50 µg/mL
same,"IC80, pseudovirus neutralization",[27],0.005 µg/mL
same,"IC50, pseudovirus neutralization",[28],0.053 µg/mL
same,"IC50, pseudovirus neutralization",[29],0.036 µg/mL
same,"IC80, pseudovirus neutralization",[30],> 50 µg/mL
same,"IC50, pseudovirus neutralization",[31],0.004 µg/mL
same,"IC50, pseudovirus neutralization",[32],> 50 µg/mL
same,"IC50, pseudovirus neutralization",[33],0.007 µg/mL
same,"IC50, pseudovirus neutralization",[34],0.005 µg/mL
same,"IC80, pseudovirus neutralization",[35],0.549 µg/mL
same,"IC80, pseudovirus neutralization",[36],> 50 µg/mL
same,"IC50, pseudovirus neutralization",[37],0.003 µg/mL
same,"IC50, pseudovirus neutralization",[38],> 50 µg/mL
same,"IC50, pseudovirus neutralization",[39],0.014 µg/mL
same,"IC50, pseudovirus neutralization",[40],0.003 µg/mL
same,"IC50, pseudovirus neutralization",[41],1.43 µg/mL
same,"IC50, pseudovirus neutralization",[42],0.429 µg/mL
same,"IC50, pseudovirus neutralization",[43],0.006 µg/mL
same,"IC50, pseudovirus neutralization",[44],> 50 µg/mL
same,"IC80, pseudovirus neutralization",[45],1 µg/mL
same,"IC50, pseudovirus neutralization",[46],> 50 µg/mL
same,"IC80, pseudovirus neutralization",[47],0.005 µg/mL
same,"IC50, pseudovirus neutralization",[48],0.022 µg/mL
same,"IC50, pseudovirus neutralization",[49],18.5 µg/mL
same,"IC50, pseudovirus neutralization",[50],1.68 µg/mL
"ePGT121.15.H2.L1 (antibody, V domains shown) VH: QMQLQESGPGLVKPGETLSLTCSVSGASISSSYWSWLRETPGKGLEWIGYTHHSGDTNYAPSLKSRVHLGLHPSKNQVSLSLTSVTAADTAVYYCARTLHGRRIYGVVAFNEWFTYFYWEVWGKGTQVTVSS VL: SDISVAPGETVRISCGGESIGSRAVQWYQHRAGQAPKLIIYNNQDRPPGIPERFSGSPDIDFGTTATLTITNVEAGDEATYYCHIWDSRRPTNWVFGGGTTLTVL",neutralization (Table 6 value),[25],0.000874
same,neutralization (Table 6 value),[27],0.000538
